B1: OR4K15 (parent)
chain: GUUAACGGUCAUAGGCCAUGGAAACUAGGAGCACCAUUUCGCUGCCAGUGAAGAAAUGAACAAAGAAAAUCUGGGCCAGGCAGGCAUCAAAAGAAAUAGUCUUGCGCUCAACCAGAAAGUCUGUAAUCAUUUUAAGGGUA

Variants of: B1
Test: self-cleavage, relative activity (ratio to wild type); higher = more cleavage; in vitro, sequencing; the parent is a self-cleaving ribozyme

| Variant | self-cleavage |
| --- | --- |
| U103C A134U | 0.78 |
| A110G A114C | 0.01 |
| A110G A114U | 0.03 |
| A110G A114G | 0.05 |
| G106U U127C | 0.01 |
| U108C A117U | 0.01 |
| U102G A116G | 0.62 |
| U102A A125G | 0.42 |
| C101A A117G | 0.13 |
| A110G A126G | 0.1 |
| U103A A116U | 0.2 |
| G106A U132C | 0.01 |
| G99A A134G | 0.6 |
| U97C A140U | 1.02 |
| U102A A118G | 0.84 |
| C105U U122C | 0.11 |
| C105U U122A | 0.27 |
| U102C A135U | 2.46 |
| U102C A135C | 1.02 |
| C109U A125G | 0.17 |
| U108C C109U | 0.01 |
| U102C U130C | 1.64 |
| U108C U132A | 0.02 |
| U108C U132C | 0.01 |

| Variant | self-cleavage |
| --- | --- |
| A98U A135G | 2.4 |
| A110G U139C | 0.17 |
| U102G U133A | 1.45 |
| U100C A111C | 0.01 |
| U100C A111U | 0.18 |
| C109U A117G | 0.44 |
| U97C A118U | 1.62 |
| U97C A118G | 0.77 |
| A98G A135C | 0.44 |
| U103C A118G | 0.22 |
| U97C U124C | 0.17 |
| U102C C109A | 0.3 |
| A98G U120C | 0.23 |
| C109U A126G | 0.14 |
| U100C U132G | 2.82 |
| U100C U132A | 1.03 |
| C107G A117G | 0.01 |
| A110U A114U | 0.04 |
| A110U A114G | 0.49 |
| U108G A118G | 0.01 |
| A98U A110U | 1.67 |
| A98U A110G | 0.17 |
| A110G A111G | 0.02 |
| U97G U103C | 0.69 |

| Variant | self-cleavage |
| --- | --- |
| U102A A116G | 0.18 |
| A98G A110U | 0.31 |
| A98G A110G | 0.06 |
| U102C U122C | 1.24 |
| U102C U122A | 1.51 |
| G106C A116G | 0.01 |
| U102A C107U | 0.01 |
| U102C U124A | 0.97 |
| U97C U122G | 2.57 |
| U97C U122A | 1.65 |
| U100A A111G | 0.02 |
| A98U U120C | 1.65 |
| U100A A140U | 0.83 |
| C101A A118G | 0.08 |
| C109U U130A | 0.25 |
| C109U U130C | 0.35 |
| U102C U132A | 2.37 |
| C109A A140G | 0.47 |
| C101U C105A | 0.01 |
| A98G A125U | 0.84 |
| G106C U127C | 0 |
| A110C A117G | 0.64 |
| U100A U130C | 0.09 |
| A110G A116G | 0.06 |

| Variant | self-cleavage |
| --- | --- |
| G106A A110G | 0.01 |
| A98U G104A | 0.12 |
| U103C U108C | 0.01 |
| U102A A117G | 1.12 |
| C107A U108C | 0.02 |
| A110C A114U | 0.01 |
| A98U A126G | 1.86 |
| U102A U122C | 0.55 |
| U108G U122C | 0.02 |
| U102C U127C | 1.56 |
| U103C G104U | 0.03 |
| U103C A125G | 0.69 |
| U97G U132C | 1.54 |
| U102C A126C | 1.47 |
| U100C U102A | 2.36 |
| A98C U122C | 2.2 |
| U97C U127A | 0.81 |
| U97C U127C | 1.25 |
| U103C G138C | 0.95 |
| A110C U122G | 0.56 |
| U100C U127G | 2.43 |
| U102G A117G | 0.37 |
| A98U A116U | 0.97 |
| U108C U122C | 0.01 |

| Variant | self-cleavage |
| --- | --- |
| U108C U122G | 0 |
| U108C U122A | 0.01 |
| C105A U108C | 0.01 |
| A98U A118U | 1.62 |
| U97C G136U | 1.55 |
| A110G G137A | 0.18 |
| U97G A98G | 1.98 |
| U108A U122C | 0.04 |
| U100C A126U | 0.32 |
| U102A A135G | 1.02 |
| C105U U139C | 0.08 |
| U108C U131C | 0.01 |
| U100A A118G | 0.47 |
| C107U C121U | 0.01 |
| G106A A118U | 0 |
| G106A A118G | 0.02 |
| G106A U122A | 0.01 |
| U103C A129G | 0.56 |
| A98U U127C | 1.98 |
| U108A U139A | 0.04 |
| A98U A114U | 0.12 |
| A98U A114G | 0.5 |
| U108C A125U | 0.01 |
| U100A A117G | 1.14 |

| Variant | self-cleavage |
| --- | --- |
| U102C A111U | 0.04 |
| U102C C113U | 0.33 |
| U102C C113A | 0.28 |
| U103C A111U | 0.1 |
| G106U A129G | 0.01 |
| U102C C128A | 2.11 |
| U102C C128U | 1.62 |
| U102G G106C | 0.01 |
| U108C U133C | 0.02 |
| U108C U133A | 0.01 |
| A98U | 2.22 |
| A98G | 0.44 |
| A98C | 0.96 |
| C109A U120C | 0.36 |
| U97C U108C | 0.04 |
| U97C U108A | 0 |
| U103A A114U | 0.05 |
| C101G U120C | 0.03 |
| A110C U131A | 0.17 |
| A98C U127C | 1.94 |
| U100C U130A | 2.16 |
| C105U U120C | 0.05 |
| U103A A110G | 0.2 |
| U103A A110U | 0.62 |

| Variant | self-cleavage |
| --- | --- |
| C101U U108C | 0.01 |
| U108C G137A | 0.01 |
| U108A U127C | 0 |
| A110G G136A | 0.09 |
| A98G U131C | 0.49 |
| G106A U139A | 0 |
| C107U U122A | 0 |
| G99U | 0.51 |
| G99A | 0.56 |
| U102A U103C | 0.12 |
| U108A U132C | 0.03 |
| U108A U132A | 0.01 |
| U103C A140G | 1.38 |
| U102C U103C | 0.21 |
| C109G | 0.02 |
| C109A | 0.38 |
| C109U | 0.49 |
| U102A A126G | 0.43 |
| U108G A126G | 0 |
| U103C A126G | 0.35 |
| U108C A126C | 0.01 |
| U102C C105U | 1.01 |
| C105U U108C | 0.02 |
